Data published in US8084434 (UNIVERSITY OF MARYLAND, dated 2011).

Molecular target: T1, Flag.RUNX2(P409A) (Homo sapiens (Human), UniProt Q13950 20-521)
T1 construct: also called mutant RUNX2; RUNX2 mutant
Test: co-immunoprecipitation, Flag.RUNX2(P409A) and HA.YAP
Protocol: Mutation of the first proline to an alanine completely abolished transcriptional activity. We reasoned that if YAP was directly interacting with RUNX2, a mutation of the first proline to an alanine in RUNX2 would reduce YAP binding and not affect the repression of the p21 CIP1 promoter. The mutant RUNX2, designated RUNX2 (P409A), was generated and its ability to interact with YAP was assessed. […] We expected that the mutant RUNX2 would retain its ability to bind DNA since the P409A mutation was downstream of the Runt DNA binding domain (amino acids 50-177). To measure RUNX2(P409A) DNA binding, DNA precipitation assays using the wild type 20-mer, double-stranded oligonucleotide from the p21 CIP1 promoter site A were performed using nuclear lysates from HEK293 cells transfected with two mutant Flag.RUNX2(P409A) clones. Both RUNX2(P409A) mutant clones retained DNA-binding activity. After verification of DNA binding, the ability of the RUNX2 mutant protein to repress p21CIP1 promoter activity was determined. NIH3T3 cells were transfected with either RUNX2 or RUNX2(P409A) and luciferase activity was measured. Both mutant RUNX2(P409A) clones and the wild-type RUNX2 were strong repressors of the p21CIP1 promoter. However, HA.YAP was unable to relieve p21 CIP1 promoter repression by the mutant Flag.RUNX2(P409A). […]

T1 sequence (Q13950 other isoform, or with tags, fused parts or gaps P409A P409A): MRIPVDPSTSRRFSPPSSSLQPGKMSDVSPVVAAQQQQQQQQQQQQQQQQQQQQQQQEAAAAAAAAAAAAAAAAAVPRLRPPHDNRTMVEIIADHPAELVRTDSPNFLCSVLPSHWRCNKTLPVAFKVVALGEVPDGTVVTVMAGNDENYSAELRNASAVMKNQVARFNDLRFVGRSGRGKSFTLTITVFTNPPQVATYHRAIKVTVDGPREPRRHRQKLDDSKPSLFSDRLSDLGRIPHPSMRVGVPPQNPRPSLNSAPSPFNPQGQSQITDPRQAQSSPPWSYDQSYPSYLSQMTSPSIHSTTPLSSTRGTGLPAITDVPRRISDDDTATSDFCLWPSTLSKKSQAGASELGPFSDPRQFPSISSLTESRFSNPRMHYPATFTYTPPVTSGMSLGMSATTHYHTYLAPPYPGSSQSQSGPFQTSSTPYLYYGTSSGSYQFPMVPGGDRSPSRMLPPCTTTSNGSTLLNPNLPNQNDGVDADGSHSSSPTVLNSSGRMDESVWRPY

B1: HA.YAP (other, not shown: small tags and cut ends)
chain: MDPGQQPPPQPAPQGQGQPPSQPPQGQGPPSGPGQPAPAATQAAPQAPPAGHQIVHVRGDSETDLEALFNAVMNPKTANVPQTVPMRLRKLPDSFFKPPEPKSHSRQASTDAGTAGALTPQHVRAHSSPASLQLGAVSPGTLTPTGVVSGPAATPTAQHLRQSSFEIPDDVPLPAGWEMAKTSSGQRYFLNHIDQTTTWQDPRKAMLSQMNVTAPTSPPVQQNMMNSASAMNQRISQSAPVKQPPPLAPQSPQGGVMGGSNSNQQQQMRLQQLQMEKERLRLKQQELLRQVRPQELALRSQLPTLEQDGGTQNPVSSPGMSQELRTMTTNSSDPFLNSGTYHSRDESTDSGLSMSSYSVPRTPDDFLNSVDEMDTGDTINQSTLPSQQNRFPDYLEAIPGTNVDLGTLEGDGMNIEGEELMPSLQEALSSDILNDMESVLAATKLDKESFLTWL
notes: Expressed in HEK293 cells and assayed in nuclear lysates; also called HA-tagged YAP; YAP65
- binding result: no binding
